Data as given in patent US20160053277A1, “Compositions Having Dicamba Decarboxylase Activity and Methods of Use” (PIONEER HI-BRED INTERNATIONAL, INC., priority 2013, published 2016).

Experiment: Saturation mutagenesis of SEQ ID NO:109: dicamba decarboxylation activity of point mutants (carbon dioxide released)
[1] = dicamba decarboxylation activity of point mutants of SEQ ID NO: 109, relative to unchanged template
[2] = point mutation in SEQ ID NO: 109

Molecule | Average Activity (Fold of SEQ ID NO: 109) [1] | Average Activity (Fold of SEQ ID NO: 109) [2]
A328R: point mutant of SEQ ID NO: 109 (protein, Dicamba decarboxylase variant clone: DC.4.032) MAQGKVALEEHFAIPETLQDSAGFVPGDYWKELQHRLLDIQDTRLKLMDAHGIETMILSLNAPAVQAIPDRRKAIEIARRANDVLAEECAKRPDRFLAFAALPLQDPDAATEELQRCVNDLGFVGALVNGFSQEGDGQTPLYYDLPQYRPFWGEVEKLDVPFYLHPRNPLPQDSRIYDGHPWLLGPTWAFAQETAVHALRLMASGLFDEHPRLNIILGHMGEGLPYMMWRIDHRVAWVKLPPRYPAKRRFMDYFNENFHITTSGNFRTQTLIDAILEIGADRILFSTDWPFENIDHASDWFNATSIAEADRVKIGRTNARRLFKLDGR | 3.0 Fold of SEQ ID NO: 109 | 
L38I: point mutant of SEQ ID NO: 109 (protein, Dicamba decarboxylase variant clone: DC.4.032) MAQGKVALEEHFAIPETLQDSAGFVPGDYWKELQHRLIDIQDTRLKLMDAHGIETMILSLNAPAVQAIPDRRKAIEIARRANDVLAEECAKRPDRFLAFAALPLQDPDAATEELQRCVNDLGFVGALVNGFSQEGDGQTPLYYDLPQYRPFWGEVEKLDVPFYLHPRNPLPQDSRIYDGHPWLLGPTWAFAQETAVHALRLMASGLFDEHPRLNIILGHMGEGLPYMMWRIDHRVAWVKLPPRYPAKRRFMDYFNENFHITTSGNFRTQTLIDAILEIGADRILFSTDWPFENIDHASDWFNATSIAEADRVKIGRTNARRLFKLDGA | 2.0 Fold of SEQ ID NO: 109 | 2.0 Fold of SEQ ID NO: 109
G27A: point mutant of SEQ ID NO: 109 (protein, Dicamba decarboxylase variant clone: DC.4.032) MAQGKVALEEHFAIPETLQDSAGFVPADYWKELQHRLLDIQDTRLKLMDAHGIETMILSLNAPAVQAIPDRRKAIEIARRANDVLAEECAKRPDRFLAFAALPLQDPDAATEELQRCVNDLGFVGALVNGFSQEGDGQTPLYYDLPQYRPFWGEVEKLDVPFYLHPRNPLPQDSRIYDGHPWLLGPTWAFAQETAVHALRLMASGLFDEHPRLNIILGHMGEGLPYMMWRIDHRVAWVKLPPRYPAKRRFMDYFNENFHITTSGNFRTQTLIDAILEIGADRILFSTDWPFENIDHASDWFNATSIAEADRVKIGRTNARRLFKLDGA | 2.0 Fold of SEQ ID NO: 109 | 
D42S: point mutant of SEQ ID NO: 109 (protein, Dicamba decarboxylase variant clone: DC.4.032) MAQGKVALEEHFAIPETLQDSAGFVPGDYWKELQHRLLDIQSTRLKLMDAHGIETMILSLNAPAVQAIPDRRKAIEIARRANDVLAEECAKRPDRFLAFAALPLQDPDAATEELQRCVNDLGFVGALVNGFSQEGDGQTPLYYDLPQYRPFWGEVEKLDVPFYLHPRNPLPQDSRIYDGHPWLLGPTWAFAQETAVHALRLMASGLFDEHPRLNIILGHMGEGLPYMMWRIDHRVAWVKLPPRYPAKRRFMDYFNENFHITTSGNFRTQTLIDAILEIGADRILFSTDWPFENIDHASDWFNATSIAEADRVKIGRTNARRLFKLDGA | 2.0 Fold of SEQ ID NO: 109 | 
W30L: point mutant of SEQ ID NO: 109 (protein, Dicamba decarboxylase variant clone: DC.4.032) MAQGKVALEEHFAIPETLQDSAGFVPGDYLKELQHRLLDIQDTRLKLMDAHGIETMILSLNAPAVQAIPDRRKAIEIARRANDVLAEECAKRPDRFLAFAALPLQDPDAATEELQRCVNDLGFVGALVNGFSQEGDGQTPLYYDLPQYRPFWGEVEKLDVPFYLHPRNPLPQDSRIYDGHPWLLGPTWAFAQETAVHALRLMASGLFDEHPRLNIILGHMGEGLPYMMWRIDHRVAWVKLPPRYPAKRRFMDYFNENFHITTSGNFRTQTLIDAILEIGADRILFSTDWPFENIDHASDWFNATSIAEADRVKIGRTNARRLFKLDGA | 1.7 Fold of SEQ ID NO: 109 | 1.7 Fold of SEQ ID NO: 109
G27T: point mutant of SEQ ID NO: 109 (protein, Dicamba decarboxylase variant clone: DC.4.032) MAQGKVALEEHFAIPETLQDSAGFVPTDYWKELQHRLLDIQDTRLKLMDAHGIETMILSLNAPAVQAIPDRRKAIEIARRANDVLAEECAKRPDRFLAFAALPLQDPDAATEELQRCVNDLGFVGALVNGFSQEGDGQTPLYYDLPQYRPFWGEVEKLDVPFYLHPRNPLPQDSRIYDGHPWLLGPTWAFAQETAVHALRLMASGLFDEHPRLNIILGHMGEGLPYMMWRIDHRVAWVKLPPRYPAKRRFMDYFNENFHITTSGNFRTQTLIDAILEIGADRILFSTDWPFENIDHASDWFNATSIAEADRVKIGRTNARRLFKLDGA | 2.0 Fold of SEQ ID NO: 109 | 
D20F: point mutant of SEQ ID NO: 109 (protein, Dicamba decarboxylase variant clone: DC.4.032) MAQGKVALEEHFAIPETLQFSAGFVPGDYWKELQHRLLDIQDTRLKLMDAHGIETMILSLNAPAVQAIPDRRKAIEIARRANDVLAEECAKRPDRFLAFAALPLQDPDAATEELQRCVNDLGFVGALVNGFSQEGDGQTPLYYDLPQYRPFWGEVEKLDVPFYLHPRNPLPQDSRIYDGHPWLLGPTWAFAQETAVHALRLMASGLFDEHPRLNIILGHMGEGLPYMMWRIDHRVAWVKLPPRYPAKRRFMDYFNENFHITTSGNFRTQTLIDAILEIGADRILFSTDWPFENIDHASDWFNATSIAEADRVKIGRTNARRLFKLDGA | 1.9 Fold of SEQ ID NO: 109 | 1.9 Fold of SEQ ID NO: 109
D42M: point mutant of SEQ ID NO: 109 (protein, Dicamba decarboxylase variant clone: DC.4.032) MAQGKVALEEHFAIPETLQDSAGFVPGDYWKELQHRLLDIQMTRLKLMDAHGIETMILSLNAPAVQAIPDRRKAIEIARRANDVLAEECAKRPDRFLAFAALPLQDPDAATEELQRCVNDLGFVGALVNGFSQEGDGQTPLYYDLPQYRPFWGEVEKLDVPFYLHPRNPLPQDSRIYDGHPWLLGPTWAFAQETAVHALRLMASGLFDEHPRLNIILGHMGEGLPYMMWRIDHRVAWVKLPPRYPAKRRFMDYFNENFHITTSGNFRTQTLIDAILEIGADRILFSTDWPFENIDHASDWFNATSIAEADRVKIGRTNARRLFKLDGA | 2.4 Fold of SEQ ID NO: 109 | 2.4 Fold of SEQ ID NO: 109
G27S: point mutant of SEQ ID NO: 109 (protein, Dicamba decarboxylase variant clone: DC.4.032) MAQGKVALEEHFAIPETLQDSAGFVPSDYWKELQHRLLDIQDTRLKLMDAHGIETMILSLNAPAVQAIPDRRKAIEIARRANDVLAEECAKRPDRFLAFAALPLQDPDAATEELQRCVNDLGFVGALVNGFSQEGDGQTPLYYDLPQYRPFWGEVEKLDVPFYLHPRNPLPQDSRIYDGHPWLLGPTWAFAQETAVHALRLMASGLFDEHPRLNIILGHMGEGLPYMMWRIDHRVAWVKLPPRYPAKRRFMDYFNENFHITTSGNFRTQTLIDAILEIGADRILFSTDWPFENIDHASDWFNATSIAEADRVKIGRTNARRLFKLDGA | 2.2 Fold of SEQ ID NO: 109 | 2.2 Fold of SEQ ID NO: 109
T43C: point mutant of SEQ ID NO: 109 (protein, Dicamba decarboxylase variant clone: DC.4.032) MAQGKVALEEHFAIPETLQDSAGFVPGDYWKELQHRLLDIQDCRLKLMDAHGIETMILSLNAPAVQAIPDRRKAIEIARRANDVLAEECAKRPDRFLAFAALPLQDPDAATEELQRCVNDLGFVGALVNGFSQEGDGQTPLYYDLPQYRPFWGEVEKLDVPFYLHPRNPLPQDSRIYDGHPWLLGPTWAFAQETAVHALRLMASGLFDEHPRLNIILGHMGEGLPYMMWRIDHRVAWVKLPPRYPAKRRFMDYFNENFHITTSGNFRTQTLIDAILEIGADRILFSTDWPFENIDHASDWFNATSIAEADRVKIGRTNARRLFKLDGA | 1.7 Fold of SEQ ID NO: 109 | 1.7 Fold of SEQ ID NO: 109
A50K: point mutant of SEQ ID NO: 109 (protein, Dicamba decarboxylase variant clone: DC.4.032) MAQGKVALEEHFAIPETLQDSAGFVPGDYWKELQHRLLDIQDTRLKLMDKHGIETMILSLNAPAVQAIPDRRKAIEIARRANDVLAEECAKRPDRFLAFAALPLQDPDAATEELQRCVNDLGFVGALVNGFSQEGDGQTPLYYDLPQYRPFWGEVEKLDVPFYLHPRNPLPQDSRIYDGHPWLLGPTWAFAQETAVHALRLMASGLFDEHPRLNIILGHMGEGLPYMMWRIDHRVAWVKLPPRYPAKRRFMDYFNENFHITTSGNFRTQTLIDAILEIGADRILFSTDWPFENIDHASDWFNATSIAEADRVKIGRTNARRLFKLDGA | 1.9 Fold of SEQ ID NO: 109 | 1.9 Fold of SEQ ID NO: 109
D42A: point mutant of SEQ ID NO: 109 (protein, Dicamba decarboxylase variant clone: DC.4.032) MAQGKVALEEHFAIPETLQDSAGFVPGDYWKELQHRLLDIQATRLKLMDAHGIETMILSLNAPAVQAIPDRRKAIEIARRANDVLAEECAKRPDRFLAFAALPLQDPDAATEELQRCVNDLGFVGALVNGFSQEGDGQTPLYYDLPQYRPFWGEVEKLDVPFYLHPRNPLPQDSRIYDGHPWLLGPTWAFAQETAVHALRLMASGLFDEHPRLNIILGHMGEGLPYMMWRIDHRVAWVKLPPRYPAKRRFMDYFNENFHITTSGNFRTQTLIDAILEIGADRILFSTDWPFENIDHASDWFNATSIAEADRVKIGRTNARRLFKLDGA | 2.0 Fold of SEQ ID NO: 109 | 
